The target of assay [1] is rationally optimised SUWA (N22E/H86K mutant of SUWA, super WA20). The experiment in a line: SEC-MALS; Superdex 75 Increase 10/300 GL, 20 °C, 20 mM HEPES pH 7.5, 150 mM NaCl, 5% glycerol; oligomeric number from the mass of each peak and the theoretical mass of the monomer.
For assay [2], the target named is rationally optimised WA20 (N22A/H86K mutant of the de novo protein WA20). The description is as above.

Several values for one entry are separate records, joined by “and”; a condition that tells them apart may be missing. Equal values may be shown once.

As for “rationally optimised SUWA (N22E/H86K mutant of SUWA, super WA20)”, in assay [1], the mass fraction of peak (i), dimer is 64%; the mass fraction of peak (ii), tetramer was found to be 18%; the mass fraction of peak (iii), hexamer is 7%; the mass fraction of peak (iv), higher oligomers came out at 11%.
On to “rationally optimised WA20 (N22A/H86K mutant of the de novo protein WA20)”, for which, in assay [2], the mass fraction of peak (i), dimer stood at 77%; the mass fraction of peak (ii), tetramer turned out to be 21%; the mass fraction of peak (iii), hexamer was 2%; the stoichiometry N is 2 mer and 4 mer and 6 mer.

The values are drawn from PMC8024369.
